{"source": "paper PMC3836677", "about": "(The Biochemical journal, 2012)", "key": {"SEC": {"biological_target": "the molecule itself", "experiment": "SEC"}, "purified protein [1]": {"substrate": "CC(=O)SCCNC(=O)CCNC(=O)[C@H](O)C(C)(C)COP(=O)(O)OP(=O)(O)OC[C@H]1O[C@@H](n2cnc3c(N)ncnc32)[C@H](O)[C@@H]1OP(=O)(O)O", "experiment": "purified protein", "settings": "50 mM HEPES-K pH 8.0, 2 mM EDTA, 0.3 mM DTNB, 37 °C"}, "purified protein [2]": {"substrate": "CC(C(=O)O)C(=O)SCCNC(=O)CCNC(=O)[C@H](O)C(C)(C)COP(=O)(O)OP(=O)(O)OC[C@H]1O[C@@H](n2cnc3c(N)ncnc32)[C@H](O)[C@@H]1OP(=O)(O)O", "experiment": "purified protein", "settings": "50 mM HEPES-K pH 8.0, 2 mM EDTA, 0.3 mM DTNB, 37 °C"}, "purified protein [3]": {"substrate": "CC(C)(COP(=O)(O)OP(=O)(O)OC[C@H]1O[C@@H](n2cnc3c(N)ncnc32)[C@H](O)[C@@H]1OP(=O)(O)O)[C@@H](O)C(=O)NCCC(=O)NCCSC(=O)CCC(=O)O", "experiment": "purified protein", "settings": "50 mM HEPES-K pH 8.0, 2 mM EDTA, 0.3 mM DTNB, 37 °C"}, "purified protein [4]": {"substrate": "CC(C)(COP(=O)(O)OP(=O)(O)OC[C@H]1O[C@@H](n2cnc3c(N)ncnc32)[C@H](O)[C@@H]1OP(=O)(O)O)[C@@H](O)C(=O)NCCC(=O)NCCSC(=O)CCCC(=O)O", "experiment": "purified protein", "settings": "50 mM HEPES-K pH 8.0, 2 mM EDTA, 0.3 mM DTNB, 37 °C"}, "purified protein [5]": {"substrate": "CC(C)(COP(=O)(O)OP(=O)(O)OC[C@H]1O[C@@H](n2cnc3c(N)ncnc32)[C@H](O)[C@@H]1OP(=O)(O)O)[C@@H](O)C(=O)NCCC(=O)NCCSC(=O)C[C@@](C)(O)CC(=O)O", "experiment": "purified protein", "settings": "50 mM HEPES-K pH 8.0, 2 mM EDTA, 0.3 mM DTNB, 37 °C"}, "purified protein [6]": {"substrate": "CC(C)(COP(=O)(O)OP(=O)(O)OC[C@H]1O[C@@H](n2cnc3c(N)ncnc32)[C@H](O)[C@@H]1OP(=O)(O)O)[C@@H](O)C(=O)NCCC(=O)NCCSC(=O)Cc1ccccc1", "experiment": "purified protein", "settings": "50 mM HEPES-K pH 8.0, 2 mM EDTA, 0.3 mM DTNB, 37 °C"}, "purified protein [7]": {"substrate": "CC(O)CC(=O)SCCNC(=O)CCNC(=O)[C@H](O)C(C)(C)COP(=O)(O)OP(=O)(O)OC[C@H]1O[C@@H](n2cnc3c(N)ncnc32)[C@H](O)[C@@H]1OP(=O)(O)O", "experiment": "purified protein", "settings": "50 mM HEPES-K pH 8.0, 2 mM EDTA, 0.3 mM DTNB, 37 °C"}, "purified protein [8]": {"substrate": "CCCCCC(=O)SCCNC(=O)CCNC(=O)[C@H](O)C(C)(C)COP(=O)(O)OP(=O)(O)OC[C@H]1O[C@@H](n2cnc3c(N)ncnc32)[C@H](O)[C@@H]1OP(=O)(O)O", "experiment": "purified protein", "settings": "50 mM HEPES-K pH 8.0, 2 mM EDTA, 0.3 mM DTNB, 37 °C"}, "purified protein [9]": {"substrate": "CCCCCCCC(=O)SCCNC(=O)CCNC(=O)[C@H](O)C(C)(C)COP(=O)(O)OP(=O)(O)OC[C@H]1O[C@@H](n2cnc3c(N)ncnc32)[C@H](O)[C@@H]1OP(=O)(O)O", "experiment": "purified protein", "settings": "50 mM HEPES-K pH 8.0, 2 mM EDTA, 0.3 mM DTNB, 37 °C"}, "purified protein [10]": {"substrate": "CCCCCCCCCCCCCCCC(=O)SCCNC(=O)CCNC(=O)[C@H](O)C(C)(C)COP(=O)(O)OP(=O)(O)OC[C@H]1O[C@@H](n2cnc3c(N)ncnc32)[C@H](O)[C@@H]1OP(=O)(O)O", "experiment": "purified protein", "settings": "50 mM HEPES-K pH 8.0, 2 mM EDTA, 0.3 mM DTNB, 37 °C"}, "purified protein [11]": {"substrate": "CCCCCCCCCCCCCCCCCC(=O)SCCNC(=O)CCNC(=O)[C@H](O)C(C)(C)COP(=O)(O)OP(=O)(O)OC[C@H]1O[C@@H](n2cnc3c(N)ncnc32)[C@H](O)[C@@H]1OP(=O)(O)O", "experiment": "purified protein", "settings": "50 mM HEPES-K pH 8.0, 2 mM EDTA, 0.3 mM DTNB, 37 °C"}}}
{"protein": "PA5026 (natural protein, Pseudomonas aeruginosa) MPLPTELARHLTEEKIAFVQRSGLRAEVLEPGYVRLRMPGAGNENHIGSMYAGALFTLAELPGGALFLTSFDSARFYPIVKEMTLRFRRPAKGDIRVEARLDAERIRQLETEAGERGKAEYSLELQLTDEQGEVVAESAALYQLRSHARP", "values": [{"measurement": "stoichiometry N", "setting": "SEC", "result": 2}]}
{"protein": "PA2801 (enzyme, Pseudomonas aeruginosa) MADRQLLHTAHIPVRWGDMDSYGHVNNTLYFQYLEEARVAWFETLGIDLEGAAEGPVVLQSLHTYLKPVVHPATVVVELYAGRLGTSSLVLEHRLHTLEDPQGTYGEGHCKLVWVRHAENRSTPVPDSIRAAIA", "values": [{"measurement": "stoichiometry N", "setting": "SEC", "result": 4}]}
{"protein": "PA5185 (enzyme, Pseudomonas aeruginosa) MATAPRPLREQYLHFQPISTRWHDNDIYGHVNNVTYYAFFDTAVNTYLIERGGLDIQGGEVIGLVVSSSCDYFAPVAFPQRIEMGLRVARLGNSSVQYELALFLEGQREACAAGRFVHVFVERRSSRPVAIPQELRDALAALQSSAQ", "values": [{"measurement": "stoichiometry N", "setting": "SEC", "result": 4}]}
{"protein": "PA5202 (enzyme, Pseudomonas aeruginosa, UniProt Q9HTY7 1-129, looked up) MSEMPAREQMISAYSELVGLDPVSLGDGVAEVRLPMAAHLRNRGGVMHGGALFSLMDVTMGLACSSSHGFDRQSVTLECKINYIRAVADGEVRCVARVLHAGRRSLVVEAEVRQGDKLVAKGQGTFAQL", "values": [{"measurement": "Km", "setting": "purified protein [1]", "result": "500 ± 100", "unit": "µM"}, {"measurement": "kcat", "setting": "purified protein [1]", "result": "0.2 ± 0.03", "unit": "s⁻¹"}, {"measurement": "kcat/Km", "setting": "purified protein [1]", "result": 400, "unit": "M⁻¹ s⁻¹"}, {"measurement": "Km", "setting": "purified protein [2]", "result": "400 ± 40", "unit": "µM"}, {"measurement": "kcat", "setting": "purified protein [2]", "result": "0.3 ± 0.01", "unit": "s⁻¹"}, {"measurement": "kcat/Km", "setting": "purified protein [2]", "result": 800, "unit": "M⁻¹ s⁻¹"}, {"measurement": "Km", "setting": "purified protein [3]", "result": "100 ± 20", "unit": "µM"}, {"measurement": "kcat", "setting": "purified protein [3]", "result": "0.8 ± 0.03", "unit": "s⁻¹"}, {"measurement": "kcat/Km", "setting": "purified protein [3]", "result": 7000, "unit": "M⁻¹ s⁻¹"}, {"measurement": "Km", "setting": "purified protein [4]", "result": "700 ± 100", "unit": "µM"}, {"measurement": "kcat", "setting": "purified protein [4]", "result": "26.8 ± 0.9", "unit": "s⁻¹"}, {"measurement": "kcat/Km", "setting": "purified protein [4]", "result": 40000, "unit": "M⁻¹ s⁻¹"}, {"measurement": "Km", "setting": "purified protein [5]", "result": "100 ± 10", "unit": "µM"}, {"measurement": "Km", "setting": "purified protein [6]", "result": "1100 ± 10", "unit": "µM"}, {"measurement": "kcat", "setting": "purified protein [6]", "result": "0.1 ± 0.01", "unit": "s⁻¹"}, {"measurement": "kcat/Km", "setting": "purified protein [6]", "result": 100, "unit": "M⁻¹ s⁻¹"}, {"measurement": "Km", "setting": "purified protein [7]", "result": "500 ± 50", "unit": "µM"}, {"measurement": "kcat", "setting": "purified protein [7]", "result": "2 ± 0.1", "unit": "s⁻¹"}, {"measurement": "kcat/Km", "setting": "purified protein [7]", "result": 4000, "unit": "M⁻¹ s⁻¹"}, {"measurement": "Km", "setting": "purified protein [8]", "result": "200 ± 20", "unit": "µM"}, {"measurement": "Km", "setting": "purified protein [9]", "result": "400 ± 60", "unit": "µM"}, {"measurement": "kcat", "setting": "purified protein [9]", "result": "2.4 ± 0.2", "unit": "s⁻¹"}, {"measurement": "kcat/Km", "setting": "purified protein [9]", "result": 7000, "unit": "M⁻¹ s⁻¹"}, {"measurement": "Km", "setting": "purified protein [10]", "result": "20 ± 10", "unit": "µM"}, {"measurement": "kcat", "setting": "purified protein [10]", "result": "0.3 ± 0.03", "unit": "s⁻¹"}, {"measurement": "kcat/Km", "setting": "purified protein [10]", "result": 13000, "unit": "M⁻¹ s⁻¹"}, {"measurement": "Km", "setting": "purified protein [11]", "result": "5 ± 1", "unit": "µM"}, {"measurement": "kcat", "setting": "purified protein [11]", "result": "0.04 ± 0.003", "unit": "s⁻¹"}, {"measurement": "kcat/Km", "setting": "purified protein [11]", "result": 8000, "unit": "M⁻¹ s⁻¹"}, {"measurement": "stoichiometry N", "setting": "SEC", "result": 4}]}
{"protein": "PA1835 (natural protein, Pseudomonas aeruginosa) MSQMMQMYQQVGPAQFSAMIGQFAPYFASIAPQFVELRPGYAEVTFPKRREVLNHIGTVHAIALCNAAELAAGTMTDASIPAGHRWIPRGMTVEYLAKATGDVRAVADGSQIDWQATGNLVVPVVAYVDDKPVFRAEITMYVSQA", "values": [{"measurement": "stoichiometry N", "setting": "SEC", "result": 2}]}
